Data reported in patent publication US20230227568A1 (Pieris, published 2023).
Where two headings read alike, the source gives them in different places.

T1: human OX40 on cells (human, UniProt P43489 29-277)
T1 construct: whole, on cells; Stably transfected CHO cells (flow cytometry) and bought Jurkat reporter cells (OX40 bioassay); also called Flp-In-CHO::huOX40; human OX40-expressing CHO cells
T1 sequence (looked up): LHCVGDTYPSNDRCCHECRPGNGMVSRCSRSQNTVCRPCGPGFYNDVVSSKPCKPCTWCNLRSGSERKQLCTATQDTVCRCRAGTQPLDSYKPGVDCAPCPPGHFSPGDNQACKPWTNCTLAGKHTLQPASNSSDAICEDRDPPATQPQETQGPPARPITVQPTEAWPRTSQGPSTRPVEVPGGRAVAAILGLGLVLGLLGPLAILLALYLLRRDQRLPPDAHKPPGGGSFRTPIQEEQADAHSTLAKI

B1: GPC3-specific lipocalin mutein SEQ ID NO: 90 (designed binder)
chain: QDSTSDLIPAPPLSKVPLQQNFQDNQFQGKWYVVGRAGNVGLREDKDPPKMWATIYELKEDKSYDVTNVRFARKKCTYSIGTFVPGSQPGEFTLGQIKSEPGGTANLVRVVSTNYNQHAMVFFKEVYQNREIFFIILYGRTKELTSELKENFIRFSKSLGLPENHIVFPVPIDQCIDG
notes: Monomeric hNGAL mutein
B2: bispecific hexavalent trimeric protein SEQ ID NO: 166 (designed binder)
chain: QDSTSDLIPAPPLSKVPLQQNFQDSQFQGKWYVVGFAGNYRLREDKDPGKMQATIYELREDKAYQVTGVLFPHKKCHDDIVIFVPGSQPGEFILGWIKSDPGITSDLVRVVSTDYNQHAMVFFKWVFQNREWFYITLYGRTKALTSELKENFIRFSKSLGLPEDHIVFPVPIDQCIDGGGGGSGGGGSGGGGSQDSTSDLIPAPPLSKVPLQQNFQDNQFHGKWYVVGQAGNIRLREDKDPIKMMATIYELKEDKSYDVTMVKFDDKKCMYDIWTFVPGSQPGEFTLGKIKSFPGHTSSLVRVVSTNYNQHAMVFFKFVFQNREEFYITLYGRTKELTSELKENFIRFSKSLGLPENHIVFPVPIDQCIDGGGGGSGGGGSGGGGSGVRLWATRQAMLGQVHEVPEGWLIFVAEQEELYVRVQNGFRKVQLEARTPLGGSGGAPEQKLISEEDLGSHHHHHHHHHH
B3: bispecific hexavalent trimeric protein SEQ ID NO: 165 (designed binder)
chain: QDSTSDLIPAPPLSKVPLQQNFQDNQFHGKWYVVGQAGNIRLREDKDPIKMMATIYELKEDKSYDVTMVKFDDKKCMYDIWTFVPGSQPGEFTLGKIKSFPGHTSSLVRVVSTNYNQHAMVFFKFVFQNREEFYITLYGRTKELTSELKENFIRFSKSLGLPENHIVFPVPIDQCIDGGGGGSGGGGSGGGGSQDSTSDLIPAPPLSKVPLQQNFQDSQFQGKWYVVGFAGNYRLREDKDPGKMQATIYELREDKAYQVTGVLFPHKKCHDDIVIFVPGSQPGEFILGWIKSDPGITSDLVRVVSTDYNQHAMVFFKWVFQNREWFYITLYGRTKALTSELKENFIRFSKSLGLPEDHIVFPVPIDQCIDGGGGGSGGGGSGGGGSGVRLWATRQAMLGQVHEVPEGWLIFVAEQEELYVRVQNGFRKVQLEARTPLGGSGGAPEQKLISEEDLGSHHHHHHHHHH
B4: multimeric protein SEQ ID NO: 53 (designed binder)
chain: GVRLWATRQAMLGQVHEVPEGWLIFVAEQEELYVRVQNGFRKVQLEARTPLGGGGSGGGGSGGGGSQDSTSDLIPAPPLSKVPLQQNFQDNQFHGKWYVVGQAGNIRLREDKDPIKMMATIYELKEDKSYDVTMVKFDDKKCMYDIWTFVPGSQPGEFTLGKIKSFPGHTSSLVRVVSTNYNQHAMVFFKFVFQNREEFYITLYGRTKELTSELKENFIRFSKSLGLPENHIVFPVPIDQCIDGGGGGSGGGGSGGGGSQDSTSDLIPAPPLSKVPLQQNFQDNQFHGKWYVVGQAGNIRLREDKDPIKMMATIYELKEDKSYDVTMVKFDDKKCMYDIWTFVPGSQPGEFTLGKIKSFPGHTSSLVRVVSTNYNQHAMVFFKFVFQNREEFYITLYGRTKELTSELKENFIRFSKSLGLPENHIVFPVPIDQCIDGGGSGGAPEQKLISEEDLGSHHHHHHHHHH
B5: multimeric protein SEQ ID NO: 50 (designed binder)
chain: QDSTSDLIPAPPLSKVPLQQNFQDNQFHGKWYVVGQAGNIRLREDKDPIKMMATIYELKEDKSYDVTMVKFDDKKCMYDIWTFVPGSQPGEFTLGKIKSFPGHTSSLVRVVSTNYNQHAMVFFKFVFQNREEFYITLYGRTKELTSELKENFIRFSKSLGLPENHIVFPVPIDQCIDGGGGGSGGGGSGGGGSGGGGSGGGGSGVRLWATRQAMLGQVHEVPEGWLIFVAEQEELYVRVQNGFRKVQLEARTPLGGGGSGGGGSGGGGSQDSTSDLIPAPPLSKVPLQQNFQDNQFHGKWYVVGQAGNIRLREDKDPIKMMATIYELKEDKSYDVTMVKFDDKKCMYDIWTFVPGSQPGEFTLGKIKSFPGHTSSLVRVVSTNYNQHAMVFFKFVFQNREEFYITLYGRTKELTSELKENFIRFSKSLGLPENHIVFPVPIDQCIDGGGSGGAPEQKLISEEDLGSHHHHHHHHHH
B6: multimeric protein SEQ ID NO: 51 (designed binder)
chain: QDSTSDLIPAPPLSKVPLQQNFQDNQFHGKWYVVGQAGNIRLREDKDPIKMMATIYELKEDKSYDVTMVKFDDKKCMYDIWTFVPGSQPGEFTLGKIKSFPGHTSSLVRVVSTNYNQHAMVFFKFVFQNREEFYITLYGRTKELTSELKENFIRFSKSLGLPENHIVFPVPIDQCIDGAEAAAKEAAAKEAAAKAGVRLWATRQAMLGQVHEVPEGWLIFVAEQEELYVRVQNGFRKVQLEARTPLGGGGSGGGGSGGGGSQDSTSDLIPAPPLSKVPLQQNFQDNQFHGKWYVVGQAGNIRLREDKDPIKMMATIYELKEDKSYDVTMVKFDDKKCMYDIWTFVPGSQPGEFTLGKIKSFPGHTSSLVRVVSTNYNQHAMVFFKFVFQNREEFYITLYGRTKELTSELKENFIRFSKSLGLPENHIVFPVPIDQCIDGGGSGGAPEQKLISEEDLGSHHHHHHHHHH

Experiments:
[1] = target: T2, human GPC3 on HepG2 cells (human, UniProt P51654 25-554); assay: flow cytometry, HepG2 cells
T2 construct: whole, on cells; Endogenous GPC3 of the tumor cell line; also called GPC3-positive tumor cell line HepG2; human GPC3-expressing HepG2 cells
Method: GPC3-positive tumor cell line HepG2 was cultured in Dulbecco's Modified Eagle's Medium ([…], Pan Biotech) supplemented with 10% Fetal Calf Serum (Sigma-Aldrich) and in cell culture flasks according to manufacturer's instruction (37° C., 5% CO₂ atmosphere).
(§1) 5×10⁴ cells per well were incubated for 1 h in ice-cold PBS containing 5% fetal calf serum (PBS-FCS). A dilution series of the tested multimeric proteins (SEQ ID NOs: 38-44 and 46-55), the 4-1BB-targeting lipocalin mutein as included in the multimeric proteins (SEQ ID NO: 64) or the GPC3-targeting lipocalin SEQ ID NO: 90 were added to the cells and incubated for 1 h on ice. Cells were washed twice with PBS and then incubated with a rabbit anti-NGAL or a goat anti-human IgG labeled with fluorescent dye Alexa 488 for 30 min on ice. Human IgG4 isotype (SEQ ID NOs: 29 and 30) and lipocalin mutein SEQ ID NO: 8 were tested as a negative control. Cells were subsequently washed and analyzed using iQue Flow cytometer (Intellicyte Screener). Mean geometric fluorescent signals were plotted and fitted with Graphpad software using nonlinear regression (shared bottom, four parameters, variable slope).

human OX40 on cells = target: T1, human OX40 on cells; assay: flow cytometry, Flp-In-CHO::huOX40 cells
Method: as §1
(§2) Target-specific binding of hexavalent trimeric proteins to human 4-1BB-, OX40- or PD-L1-expressing cells was assessed by flow cytometry as described in Example 5, using CHO cells stably transfected with human 4-1BB, human OX40 or human PD-L1 (Flp-In system; Life Technologies).

human 4-1BB on cells [2] = target: T3, human 4-1BB on cells (human, UniProt Q07011 24-255); assay: flow cytometry, Flp-In-CHO::hu4-1BB cells
T3 construct: whole, on cells; Stably transfected CHO cells (flow cytometry) and bought Jurkat reporter cells (bioassay); also called Flp-In-CHO::hu4-1BB; human 4-1BB-expressing CHO cells
Method: as §1, §2

[3] = target: T4, recombinant hu4-1BB-His (human 4-1BB with a C-terminal polyhistidine tag, R&D Systems) (human, UniProt Q07011 24-186); assay: ELISA, hu4-1BB-His coated, detection anti-NGAL-HRP
T4 construct: Bought; not shown: C-terminal polyhistidine tag
Method: Recombinant hu4-1BB-His (human 4-1BB with a C-terminal polyhistidine tag, R&D Systems) at the concentration of 1 μg/mL in PBS was coated overnight on microtiter plates at 4° C. After washing with PBS-0.05% T (PBS supplemented with 0.05% (v/v) Tween 20), the plates were blocked with 2% BSA (w/v) in PBS-0.1% T (PBS supplemented with 0.1% (v/v) Tween 20) for 1 h at room temperature. After washing with 100 μL PBS-0.05% T five times, exemplary multimeric proteins (SEQ ID NOs: 38-44 and 46-53) or 4-1BB-specific lipocalin mutein as included in the multimeric protein (SEQ ID NO: 64) at different concentrations, ranging from 100 to 0.002 nM, were added to the wells and incubated for 1 h at room temperature, followed by another wash step. Bound molecules under study were detected by incubation with 1:1000 diluted anti-NGAL-HRP in PBS-0.1% T-2% BSA. After an additional wash step, fluorogenic HRP substrate (QuantaBlu, Thermo) was added to each well and the fluorescence intensity was detected using a fluorescence microplate reader.
The results of exemplary experiments are depicted in FIG. 2, together with the fit curves resulting from a 1:1 binding sigmoidal fit, where the EC₅₀ value and the maximum signal were free parameters, and the slope was fixed to one. The observed EC₅₀ values toward the hu4-1BB of all tested multimeric proteins were in the sub nanomolar range.

[4] = target: T5, cynomolgus 4-1BB on CHO cells (cynomolgus, UniProt A9YYE7 24-254); assay: flow cytometry, Flp-In-CHO::cyno4-1BB cells
T5 construct: also called Flp-In-CHO::cyno4-1BB; cynomolgus 4-1BB-expressing CHO cells
Method: (§3) CHO cells were stably transfected with human 4-1BB, cynomolgus 4-1BB, or a mock control using the Flp-In system (Life Technologies) according to the manufacturer's instructions. Transfected CHO cells were maintained in Ham's F12 medium (Life Technologies) supplemented with 10% Fetal Calf Serum (Biochrom) and 500 μg/ml Hygromycin B (Roth). Cells were cultured in cell culture flasks according to manufacturer's instruction (37° C., 5% CO₂ atmosphere).
as §1

hu4-1BB-Fc (R&D Systems) = target: T6, hu4-1BB-Fc (R&D Systems) (human, UniProt Q07011 24-186); assay: SPR (Biacore 8K), hu4-1BB-Fc captured by anti-human IgG Fc; apparent value, 1:1 fit
T6 construct: Bought; also called human 4-1BB; not shown: human IgG Fc of the bought fusion
Method: The anti-human IgG Fc antibody (GE Healthcare) was immobilized on a CM5 sensor chip using standard amine chemistry: the carboxyl groups on the chip were activated using 1-ethyl-3-(3-dimethylaminopropyl)-carbodiimide (EDC) and N-hydroxysuccinimide (NHS). Subsequently, anti-human IgG Fc antibody solution (GE Healthcare) at a concentration of 25 μg/mL in 10 mM sodium acetate (pH 5.0) was applied at a flow rate of 5 μL/min until an immobilization level of 4000-10000 resonance units (RU) was achieved. Residual non-reacted NHS-esters were blocked by passing a solution of 1 M ethanolamine across the surface. The reference channel was treated in an analogous manner. Subsequently, hu4-1BB-Fc (R&D Systems) at 0.3 μg/mL was captured by the anti-human IgG-Fc antibody at the chip surface for 180 s at a flow rate of 10 μL/min.
The binding assay was carried out with a contact time of 180 s, a dissociation time of 1200 s or 3000 s and a flow rate of 30 μL/min. All measurements were performed at 25° C. Lipocalin mutein SEQ ID NO: 64 as included in the multimeric proteins was also tested as […]. […] Prior to the protein measurements, three startup cycles were performed for conditioning purposes. Data were evaluated with Biacore Evaluation software. Double referencing was used and the 1:1 binding model was used to fit the raw data.

human 4-1BB on cells [5] = target: T3, human 4-1BB on cells; assay: cell-based or functional assay
human 4-1BB on cells [6] = target: T3, human 4-1BB on cells; assay: flow cytometry, Flp-In-CHO::hu4-1BB cells; remark: listed apart in the source
Method: as §3, §1

T5 sequence (A9YYE7 entry or part of it limits assumed): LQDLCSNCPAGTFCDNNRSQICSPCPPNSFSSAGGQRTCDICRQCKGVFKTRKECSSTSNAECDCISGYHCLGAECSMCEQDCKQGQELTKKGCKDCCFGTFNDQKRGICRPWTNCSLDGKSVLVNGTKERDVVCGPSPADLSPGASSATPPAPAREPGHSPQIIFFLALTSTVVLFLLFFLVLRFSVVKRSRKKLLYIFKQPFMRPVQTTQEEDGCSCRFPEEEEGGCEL
T3 sequence (Q07011 24-255): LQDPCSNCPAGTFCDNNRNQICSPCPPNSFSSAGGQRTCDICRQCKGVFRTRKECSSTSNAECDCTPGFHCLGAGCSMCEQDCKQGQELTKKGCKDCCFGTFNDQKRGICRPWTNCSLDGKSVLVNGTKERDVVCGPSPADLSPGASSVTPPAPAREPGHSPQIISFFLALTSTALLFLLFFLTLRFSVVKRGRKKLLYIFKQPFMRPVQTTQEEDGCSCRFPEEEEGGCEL
T2 sequence (P51654 25-554 limits assumed): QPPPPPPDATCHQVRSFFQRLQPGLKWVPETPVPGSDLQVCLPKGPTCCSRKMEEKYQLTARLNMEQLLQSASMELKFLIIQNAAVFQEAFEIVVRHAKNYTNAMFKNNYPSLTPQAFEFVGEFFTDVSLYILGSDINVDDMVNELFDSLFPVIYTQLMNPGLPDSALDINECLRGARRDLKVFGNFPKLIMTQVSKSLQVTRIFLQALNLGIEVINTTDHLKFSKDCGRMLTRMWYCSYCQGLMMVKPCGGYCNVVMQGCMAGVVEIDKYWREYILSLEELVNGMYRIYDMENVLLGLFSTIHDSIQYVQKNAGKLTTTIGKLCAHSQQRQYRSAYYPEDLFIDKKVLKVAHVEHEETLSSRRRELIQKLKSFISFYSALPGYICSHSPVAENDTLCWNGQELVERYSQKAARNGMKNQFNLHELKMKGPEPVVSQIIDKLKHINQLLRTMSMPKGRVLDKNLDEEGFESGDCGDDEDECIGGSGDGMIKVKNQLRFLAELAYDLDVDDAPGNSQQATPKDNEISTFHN

Row | EC50 [1] [nM] | EC50 (human OX40 on cells) [nM] | EC50 (human 4-1BB on cells [2]) [nM] | EC50 [3] [nM] | EC50 [4] [nM] | Kd (hu4-1BB-Fc (R&D Systems)) [nM] | koff (hu4-1BB-Fc (R&D Systems)) [s⁻¹] | kon (hu4-1BB-Fc (R&D Systems)) [M⁻¹ s⁻¹] | EC50 [nM], 4-1BB bioassay (NFκB-luc2/4-1BB Jurkat luminescence), with HepG2 cells (human 4-1BB on cells [5]) [nM] | EC50 (human 4-1BB on cells [6]) [nM] | Binder
1 | 1.53 | – | – | – | – | – | – | – | – | – | B1
2 | – | 0.56 | 4.51 | – | – | – | – | – | – | – | B2
3 | – | 0.18 | 2.19 | – | – | – | – | – | – | – | B3
4 | – | – | – | 0.14 | 4.55 | 0.13 | 9.99e-06 | 77100 | 1.83 | 4.2 | B4
5 | – | – | – | 0.13 | 2.62 | 0.17 | 1.36e-05 | 78800 | 0.92 | 2.49 | B5
6 | – | – | – | 0.15 | 4.41 | 0.36 | 2.53e-05 | 71000 | 0.97 | 4.41 | B6
